Laboratory results from article PMC6360386 (2018).

B1: Flag and GFP-fused PKN3 WT (mouse) [mouse] / p130Cas, endogenous in MDA-MB-231 cells [human (endogenous in MDA-MB-231)] (parent complex)
chain 1: MEHRKPGTGQRAPKDEKEMVRRAIQKELKIKEGMENMRRVATDRRHLGHVQQLLRASNRRLEQLHGELRELHAQVLLPASAEPVTSEPQPRAEQSRARLSEALHRQLQVELKVKQGAENMIHTCASGTPKERKLLAAAQQMLKDSQLKVALLRMKISSLESSGSPEPGPDLLAEELQHRLRVEAAVAAGAKNVVKLLGGQRMQDRKALAEAQAQLQESSQKLDLLRLALELLLERLPPTHSLRSRVTQELWMAMLGNPQPLGTLVKPIALTGTLQVRLLGCKDLLVAVPGRSPMAVLAGSPSESWLRTRSRQQRGGGELASEVLAVLKVDNRVVGQTGWGLVAEKSWDQSFIISLDRARELEIGVHWRDWRQLCGVAFLKLEDFLDNACHQLSLSLVPQGRLFAQVTFCEPVIERRPRLQRQRCIFSKRRGRDFMRASQMNLSMAAWGRLVMSLLPPCSSPNTASPPKGRPSTAVCGTPSAASPSNFLPMKTLSKEDTKPPPKPPRLYLQEPAPGTPCTKRPHMDPRPAVVPALAALSTRKPPRLQDFRCLAVLGRGHFGKVLLVQYKGTGKYYAIKALKKQEVLGRDEIDSLYCEKRILETVGRTGHPFLLSLLACLQTSSHACFVTEFLPGGDLMAQIHEDVFPEPQACFYLACVVLGLQFLHEKRIIYRDLKLDNLLLDAQGFLKIADFGLCKEGIGFGDRTSTFCGTPEFLAPEVLTQEAYTRAVDWWGLGVLLYEMLVGECPFPGDTEEEVFECIVSADVPCPHFLSVQGLELIQKLLQKSPEKRLGAGERDAEEIKVQPFFRTTNWQALLARTVQPPFVPTLCGPADLRYFEGEFTSLPPTLTPPVSQSSLTARQQAAFRDFDFVSEQFLES
chain 2: MNHLNVLAKALYDNVAESPDELSFRKGDIMTVLEQDTQGLDGWWLCSLHGRQGIVPGNRLKILVGMYDKKPAGPGPGPPATPAQPQPGLHAPAPPASQYTPMLPNTYQPQPDSVYLVPTPSKAQQGLYQVPGPSPQFQSPPAKQTSTFSKQTPHHPFPSPATDLYQVPPGPGGPAQDIYQVPPSAGMGHDIYQVPPSMDTRSWEGTKPPAKVVVPTRVGQGYVYEAAQPEQDEYDIPRHLLAPGPQDIYDVPPVRGLLPSQYGQEVYDTPPMAVKGPNGRDPLLEVYDVPPSVEKGLPPSNHHAVYDVPPSVSKDVPDGPLLREETYDVPPAFAKAKPFDPARTPLVLAAPPPDSPPAEDVYDVPPPAPDLYDVPPGLRRPGPGTLYDVPRERVLPPEVADGGVVDSGVYAVPPPAEREAPAEGKRLSASSTGSTRSSQSASSLEVAGPGREPLELEVAVEALARLQQGVSATVAHLLDLAGSAGATGSWRSPSEPQEPLVQDLQAAVAAVQSAVHELLEFARSAVGNAAHTSDRALHAKLSRQLQKMEDVHQTLVAHGQALDAGRGGSGATLEDLDRLVACSRAVPEDAKQLASFLHGNASLLFRRTKATAPGPEGGGTLHPNPTDKTSSIQSRPLPSPPKFTSQDSPDGQYENSEGGWMEDYDYVHLQGKEEFEKTQKELLEKGSITRQGKSQLELQQLKQFERLEQEVSRPIDHDLANWTPAQPLAPGRTGGLGPSDRQLLLFYLEQCEANLTTLTNAVDAFFTAVATNQPPKIFVAHSKFVILSAHKLVFIGDTLSRQAKAADVRSQVTHYSNLLCDLLRGIVATTKAAALQYPSPSAAQDMVERVKELGHSTQQFRRVLGQLAAA

Variants of: B1
Test: co-immunoprecipitation (IP anti-Flag sepharose, IB anti-p130Cas); MDA-MB-231 cells, transient transfection; parent: 1

| ratio to parent | Variant |
| --- | --- |
| 0.8 | chain 1 K577E |
| 0.2 | chain 1 P501A, chain 1 K503S, chain 1 P504A |
